According to the DeepSol protein solubility set:

assay: soluble on expression in E. coli; label from the status in PepcDB or PDB records

Sequence | soluble on expression in E. coli
MGSDKIHHHHHHMSTIQIKQLNFAYDGQAPLFTNTTLDLDTNWHLGLVGRNGRGKTTLLRILQQALPYSGTVTVPLQLQYFPQTLDETQLTLTAAQAITDVAQWQLERELNLLHADPNILWRPFVDLSGGEQTKVRLALLFIQDNGVALIDEPTNHLDLRSRRQVAAYLQQKPGFIVVSHDRDFLDSITDHTLAIQRQQITLYQGNFSTFMTEKERQDQTELAKNGQLKTEITRLKRTTHDKKVWAENKEKSIYGNPHIKDSGHNAGRGFISARAARTMKKSKNLEHRMTKEIDEKESLLKNLEKVDPLTMLPVSTHHHQLVVAEKVQVGFDQPLFQPISFTLTRGDRIAIVGDNGSGKSTLIRALLKQFTGMQSGHLTLAPVSLSLVRQQYTDNRGTLVDFAKQHQLSRETLLNNLRKLGMPRADFNTSIEHLSMGQQKKVELARSLATPGALYVWDEPLNYLDTYNQDQLVAAIKHYQPTMLFVEHDEHFIEQVATKIIRLQP | not soluble
MGSDKIHHHHHHMDLEEQKKAVIEKLIREGYIKSKRVIDALLKVPREEFLPEHLKEYAYVDTPLEIGYGQTISAIHMVGMMCELLDLKPGMKVLEIGTGCGYHAAVTAEIVGEDGLVVSIERIPELAEKAERTLRKLGYDNVIVIVGDGTLGYEPLAPYDRIYTTAAGPKIPEPLIRQLKDGGKLLMPVGRYLQRLVLAEKRGDEIIIKDCGPVAFVPLVGKEGFQG | not soluble
MGSDKIHHHHHHMDMNQGGLISLSPHAQVLLRPEGIQFGLDSANAGIFAAPESLIVAIVQVLRGFWQPIAKTTAIEQLTEAGLQPVAARGLIDDLLHHRVLSIVERNLTVAVGGFGPLVAPIKAVLGCAGISVVQAHTIQRCMTLESLLSREVPLIWINSTPSFSHIAQELVEVKTMIPVGLMDNHAIIGPVRIDGRGPCGLCTDLYRSDADPQWPALLKNATAPLTAPAALTYATAARVTRLVEQLSEPRQRVTVTAGLVIRVSSDGELSSEIMSPHSRCPLCWSSRWDCDPLTGTEQAFLADLGQNVLL | not soluble
MSKNERMVGISRRTLVKSTAIGSLALAAGGFSLPFTLRNAAAAVQQAREKVVWGACSVNCGSRCALRLHVKDNEVTWVETDNTGSDEYGNHQVRACLRGRSIRRRINHPDRLNYPMKRVGKRGEGKFERISWDEALDTIASSLKKTVEQYGNEAVYIQYSSGIVGGNMTRSSPSASAVKRLMNCYGGSLNQYGSYSTAQISCAMPYTYGSNDGNSTTDIENSKLVVMFGNNPAETRMSGGGITYLLEKAREKSNAKMIVIDPRYTDTAAGREDEWLPIRPGTDAALVAGIAWVLINENLVDQPFLDKYCVGYDEKTLPADAPKNGHYKAYILGEGDDKTAKTPQWASQITGIPEDRIIKLAREIGTAKPAYICQGWGPQRQANGELTARAIAMLPILTGNVGISGGNSGARESTYTITIERLPVLDNPVKTSISCFSWTDAIDHGPQMTAIRDGVRGKDKLDVPIKFIWNYAGNTLVNQHSDINKTHEILQDESKCEMIVVIENFMTSSAKYADILLPDLMTVEQEDIIPNDYAGNMGYLIFLQPVTSEKFERKPIYWILSEVAKRLGPDVYQKFTEGRTQEQWLQHLYAKMLAKDPALPSYDELKKMGIYKRKDPNGHFVAYKAFRDDPEANPLKTPSGKIEIYSSRLAEIARTWELEKDEVISPLPVYASTFEGWNSPERRTFPLQLFGFHYKSRTHSTYGNIDLLKAACRQEVWINPIDAQKRGIANGDMVRVFNHRGEVRLPAKVTPRILPGVSAMGQGAWHEANMSGDKIDHGGCVNTLTTLRPSPLAKGNPQHTNLVEIEKI | soluble
MNMIDQLNITDFQVFTDENSDKFVSKIYKFSSKMILSDFHAQPQGFLNGGASLALAEITAGMASNAIGSGQYFAFGQSINANHLNPKKCEGFVNARGLLLKNGKRNHVWEIKITDENETLISQITVVNALVPQKNSDKLEHHHHHH | soluble
MAHHHHHHMDEIKWPLRLLQILRNHLEQVDHPHEPRTLPIAAKCGQGGVLAFLTDVDDDVRRRTGASECITACCRGLVLDMIEQCCTLLFLSSKERRVINMAAVQREKRVVARGVGKRRRGDQGETTEETAIGETDNSQRKCAAVLPLEYLLRLFVALPSLLAHYDKLGGSTMPAAFKQPLWNYVNAVLDIMKDMTFLDPSEYIPLR | not soluble
MKSKLKLHGFNNLTKTLSFNIYDICYAETPEDLQAYVQYIDEEYDAERLTQILTDVVDIIGANILNIARQDYDPQGASVTILISEQPVTPTDSQIEESPGPLPDTILAHLDKSHITVHTYPEIHPVDGIATFRVDIDVSTCGVISPLKALNYLIHQFDSDIVTVDYRVRGFTRDIEGRKHFIDHEINSIQNYLSDDTREAYQMTDVNVYQENLFHTKMLLKDFELENYLFGDATRTLSAEQREQVTERLKHEMLEIFYARNMPR | not soluble
MQIIRRLMFVVALICPLITQAEPQVAKLYQRELTRNSYAIGGLNAPVALFAAQVHQESQWNVTALSHVGAQGLAQFMPQTANWIATQYPELKTNQPFNPSWALRALVRYDYWLYQRIHAVTDCDRWAFALSAYNGGLGWVQRDKRKARIQGLDPMSYWHAVESVNSGRSRANFIENRGYPKRIIYRWQPLYLHWGNSVCLDD | not soluble
MASVTEQFNDIISLYSTKLEHTSLRQDSPEYQGLLLSTIKKLLNLKTAIFDRLALFSTNETIDDVSTASIKFLAVDYYLGLLISRRQSNDSDVAQRQSMKLIYLKKSVESFINFLTLLQDYKLLDPLVGEKLGNFKDRYNPQLSELYAQPKNNKDLSGAQLKRKEKIELFQRNKEISTKLHCLELELKNNDEDHDHDELLRELYLMRLHHFSLDTINNIEQNLFECEMLSNFLK | soluble
GPGSMSTSQPIVKPFIYLRIPSEDARPVEELHFNGHNEAELRHTLTRCFRQSLLSDDQKKDMARHLADKASESAKKHAVKGNGDASAAGSGAEPPVDVEQQQAAMIDQYLEQASYEIIPVTMPMRSTQYIGTSLYIDDSGAFKDLPLNYRASKLAQREIRGDAFLLSNHDDPALDEWGRVDCPLQRYEELYANPPQIAYDPSNQAQMTQAAMLRETETKKISLEDYEKAQKAKEDGNRLFAANDLPAAVQAYSMTVDLTDGRRDLLPNEEAATQLRLSALLNRCLCFTRLKKFPEAVRDAQAAAYLDPKSMKAYYRLTYALCGAQEYEAAAQACEKYAQLGGAEEDVTAMRTAVAAGETEVKKAQKQIFSKMFRS | soluble
MSLTKYIFVTGGVVSSIGKGIVAASLGRLLKNRGLKVTIQKFDPYINIDPGTMSPYQHGEVYVTDDGAETDLDLGHYERFIDINLNKYSNVTTGKIYSEVLRKERKGEYLGATVQVIPHITDALKEKIKRAATTTDSDVIITEVGGTVGDIESLPFLEALRQMKADVGADNVMYIHTTLLPYLKAAGEMKTKPTQHSVKELRGLGIQPNMLVIRTEQPAGQGIKNKLAQFCDVAPEAVIESLDVDHLYQIPLNLQAQNMDQIVCDHLKLDVPVADMTEWSAMVDKVMNLKKKTKIALVGKYVELPDAYLSVVEALKHSGYVNDTAIDLNWINANEVTPETVTDLLGDADGIIVPGGFGHRGTEGKIEAIRYARENDVPMLGICLGMQLTCVEYARHVLNLEGANSAELDPDTKYPVIDIMRDQIDIEDMGGTLRLGLYPCKLKSGSKTASAYSNQEVVQRRHRHRYEFNNAFRQQFEEAGFVFSGVSPDNRLVEVVELSDKKFFVAAQYHPELQSRPNRPEELYTAFITAAVENSQAHEGHHHHHH | soluble
MNKRNWTAYYNSTKQNTLPRKSLLKAIANFDKEKINLSKSAIDLGCGAGIDVMELLRCGWSVIAIDSQLSAIDSLLSSAQELTCANKLKTIISSFEALDSLPKVNLINASFSLPFLKPVYFYKFWSVILKGLKPGGRFSGSFFGFNDFWNTRTDMTFLNREMICHLFSQFKIEYFQEEEKDEMDALGYYKHWHKFFIVAKKIALEHHHHHH | not soluble
MGSDKIHHHHHHMKAGISLSLSLALSCSAVAQGQKISVPPVFNIFELVIRQDKNNAYDSLAEKNITASVTGEPGTLAMYSAKKKTNPSVTYMYEIYADSDAYDKHLNSTSYKEFLRNSPDILETSQTRRIDVIPQFLADKKIVQNDSTINNFVIVDVKPELGQAFRHVVLPEMAQSIEREEGVLAMYAAIDKANRNRWYFYEIYASENAYQAHRLTPHFKAYINQTAEMTTYKEAIDIKPGLLMNKGGMRYENE | not soluble
MSLRQAHFLKGKDAMNNPSVIPAFDFREMVTTLDNKIITTSLKVADYFGKRHKDVLRAIRNLKCSDDFTQRNFAPIDFIDKNGDVQPMYNITRDGCMMLVMGFTGKTAAAVKECYINAFNWMAEQLNRRMAMGEEGHHHHHH | soluble
